Experimental data published in patent publication US20250090677A1 (MULTITUDE THERAPEUTICS, published 2025).
Where a chain is given by its changes, count along the chain named.

Key:
Assay in all cases: ELISA, antigen coated at 1 ug/mL, 3-fold antibody dilutions, HRP anti-human antibody, OD450
[1] = molecular target: T1, mouse CDH6-ECD-His (mouse, UniProt P97326 54-615)
T1 construct: extracellular domain; Bought protein; not shown: His tag
T1 sequence (looked up): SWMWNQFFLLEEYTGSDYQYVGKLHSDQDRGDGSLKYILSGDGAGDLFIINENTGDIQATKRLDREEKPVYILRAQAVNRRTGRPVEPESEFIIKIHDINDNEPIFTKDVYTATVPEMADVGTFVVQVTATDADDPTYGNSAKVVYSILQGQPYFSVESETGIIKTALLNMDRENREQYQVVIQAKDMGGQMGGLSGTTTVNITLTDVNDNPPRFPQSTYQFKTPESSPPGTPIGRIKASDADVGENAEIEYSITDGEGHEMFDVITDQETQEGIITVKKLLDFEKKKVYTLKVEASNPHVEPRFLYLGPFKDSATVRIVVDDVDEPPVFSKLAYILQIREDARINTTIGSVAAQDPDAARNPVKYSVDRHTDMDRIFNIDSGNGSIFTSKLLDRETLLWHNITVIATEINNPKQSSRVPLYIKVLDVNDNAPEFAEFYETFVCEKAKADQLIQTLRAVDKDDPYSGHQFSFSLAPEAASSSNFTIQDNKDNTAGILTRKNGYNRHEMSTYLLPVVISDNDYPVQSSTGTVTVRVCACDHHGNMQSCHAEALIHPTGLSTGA
Method: (§1) CDH9 and […] are the most closely related family members to CDH6. Binding of CL069707-H1L1 on human CDH6, CDH9 and CDH10 ECD domains were analyzed by ELISA Binding Assay. Human […], CDH9-ECD-His and CDH10-ECD-His antigens were obtained from Acro Biosystems, Inc. 100 μL of 1 μg/mL of the antigens diluted in PBS were added to 96 well plates and incubated in 4° C. overnight. The plates were washed 3 times with 300 μL of washing buffer. Then 100 μL/well of 1% BSA blocking reagent were added to the plates, and incubated at 37° C. for 1 h then the blocking reagent were discarded. A 3-fold serial dilution of CL069707-H1L1 was added to the plates and then incubated at 37° C. for 1 h. Then the plates were washed 3 times with 300 μL of washing buffer. 100 μL/well of HRP-conjugated anti-Human antibody diluted in 1% BSA were added to the plates and then incubated at 37° C. for 1 h. The plates were washed 3 times with 300 μL of washing buffer. 100 μL/well of TMB substrate were added to the plates and incubated for about 10 min in room temperature. Then the reaction was stopped with 100 μL/well of stopping solution. OD450 was read with a plate reader and the data were processed.
(§2) Binding of CL069707-H1L1 on human, cyno monkey, mouse or rat CDH6 antigen were analyzed by ELISA. Human, cyno monkey, mouse and rat CDH6-ECD-His antigens were obtained from Acro Biosystems, Inc. ELISA were done with the same methods as in example 3.1. CL069707-H1L1 binds to human, cyno monkey, mouse and rat CDH6-ECD-His antigens with similar EC50.

[2] = molecular target: T2, rat CDH6-ECD-His (rat, UniProt P55280 54-615)
T2 construct: extracellular domain; Bought protein; not shown: His tag
T2 sequence (looked up): T1 sequence (looked up) with V78I, E261D, K288R, V301I, L333P, R344Q, R457H, S481G
Method: as §1, §2

[3] = molecular target: T3, cyno monkey CDH6-ECD-His (cyno monkey, UniProt A0A2K5TW62 54-615)
T3 construct: extracellular domain; Bought protein; also called Cyno CDH6-ECD-His; not shown: His tag
T3 sequence: T1 sequence (looked up) with V78I, D109E, A119S, H260L, E261D, D322E, R344Q, A353T, S481G
Method: as §1, §2

- EC50 (read off the curve) [1]: ~0.1 nM
- EC50 (read off the curve) [2]: ~0.1 nM
- EC50 (read off the curve) [3]: ~0.1 nM
B1: CL069707-H1L1 (antibody, human IgG1, kappa, V domains shown)
VH: EVQLVESGGGLVQPGGSLRLSCAASGFTFTTYAMNWVRQAPGKGLEWVARIRIKNNNYATYYADSVTDRFTISRDDSKNSLYLQMNSLKTEDTAVYYCVRPDYGNYGLAYWGQGTLVTVSS
VL: DIQLTQSPSSLSASVGDRVTITCSASSSISSHYLHWYQQKPGKSPKLLIYRSFYLASGVPSRFSGSGSGTDFTLTISSLQPEDFATYYCQQDIVPLTFGQGTKLEIKR
notes: Humanized IgG1/kappa, produced in 293 cells; also called humanized CL069707-H1L1
